Square brackets hold non-standard residues; d marks the D form. Ends that are not written are not given here. Aib = CC(C)(N)C(=O)O
B1: SEQ ID NO: 14 (peptide)
peptide: H[Aib]EGTFTSDVSELKEEAAQQRFLEHLV-NH2
modifications: not fully specified (residue 14); also: K14 lipidated with C20DA[γE][OEG][OEG]- or C18DA[γE][OEG][OEG]-
B2: SEQ ID NO: 129 (peptide)
peptide: H[Aib]EGTFTSDPSVLLEGAALQRFIQWLV-NH2
modifications: N-terminus assumed
SMILES: CC[C@H](C)[C@H](NC(=O)[C@H](Cc1ccccc1)NC(=O)[C@H](CCCNC(=N)N)NC(=O)[C@H](CCC(N)=O)NC(=O)[C@H](CC(C)C)NC(=O)[C@H](C)NC(=O)[C@H](C)NC(=O)CNC(=O)[C@H](CCC(=O)O)NC(=O)[C@H](CC(C)C)NC(=O)[C@H](CC(C)C)NC(=O)[C@@H](NC(=O)[C@H](CO)NC(=O)[C@@H]1CCCN1C(=O)[C@H](CC(=O)O)NC(=O)[C@H](CO)NC(=O)[C@@H](NC(=O)[C@H](Cc1ccccc1)NC(=O)[C@@H](NC(=O)CNC(=O)[C@H](CCC(=O)O)NC(=O)C(C)(C)NC(=O)[C@@H](N)Cc1c[nH]cn1)[C@@H](C)O)[C@@H](C)O)C(C)C)C(=O)N[C@@H](CCC(N)=O)C(=O)N[C@@H](Cc1c[nH]c2ccccc12)C(=O)N[C@@H](CC(C)C)C(=O)N[C@H](C(N)=O)C(C)C
B3: SEQ ID NO: 126 (peptide)
peptide: H[Aib]EGTFTSDPSFLLEGAALQRFIQWLV-NH2
modifications: N-terminus assumed
SMILES: CC[C@H](C)[C@H](NC(=O)[C@H](Cc1ccccc1)NC(=O)[C@H](CCCNC(=N)N)NC(=O)[C@H](CCC(N)=O)NC(=O)[C@H](CC(C)C)NC(=O)[C@H](C)NC(=O)[C@H](C)NC(=O)CNC(=O)[C@H](CCC(=O)O)NC(=O)[C@H](CC(C)C)NC(=O)[C@H](CC(C)C)NC(=O)[C@H](Cc1ccccc1)NC(=O)[C@H](CO)NC(=O)[C@@H]1CCCN1C(=O)[C@H](CC(=O)O)NC(=O)[C@H](CO)NC(=O)[C@@H](NC(=O)[C@H](Cc1ccccc1)NC(=O)[C@@H](NC(=O)CNC(=O)[C@H](CCC(=O)O)NC(=O)C(C)(C)NC(=O)[C@@H](N)Cc1c[nH]cn1)[C@@H](C)O)[C@@H](C)O)C(=O)N[C@@H](CCC(N)=O)C(=O)N[C@@H](Cc1c[nH]c2ccccc12)C(=O)N[C@@H](CC(C)C)C(=O)N[C@H](C(N)=O)C(C)C
B4: SEQ ID NO: 127 (peptide)
peptide: H[Aib]EGTFTSDPSWLLEGAALQRFIQWLV-NH2
modifications: N-terminus assumed
SMILES: CC[C@H](C)[C@H](NC(=O)[C@H](Cc1ccccc1)NC(=O)[C@H](CCCNC(=N)N)NC(=O)[C@H](CCC(N)=O)NC(=O)[C@H](CC(C)C)NC(=O)[C@H](C)NC(=O)[C@H](C)NC(=O)CNC(=O)[C@H](CCC(=O)O)NC(=O)[C@H](CC(C)C)NC(=O)[C@H](CC(C)C)NC(=O)[C@H](Cc1c[nH]c2ccccc12)NC(=O)[C@H](CO)NC(=O)[C@@H]1CCCN1C(=O)[C@H](CC(=O)O)NC(=O)[C@H](CO)NC(=O)[C@@H](NC(=O)[C@H](Cc1ccccc1)NC(=O)[C@@H](NC(=O)CNC(=O)[C@H](CCC(=O)O)NC(=O)C(C)(C)NC(=O)[C@@H](N)Cc1c[nH]cn1)[C@@H](C)O)[C@@H](C)O)C(=O)N[C@@H](CCC(N)=O)C(=O)N[C@@H](Cc1c[nH]c2ccccc12)C(=O)N[C@@H](CC(C)C)C(=O)N[C@H](C(N)=O)C(C)C
B5: SEQ ID NO: 128 (peptide)
peptide: H[Aib]EGTFTSDPSYLLEGAALQRFIQWLV-NH2
modifications: N-terminus assumed
SMILES: CC[C@H](C)[C@H](NC(=O)[C@H](Cc1ccccc1)NC(=O)[C@H](CCCNC(=N)N)NC(=O)[C@H](CCC(N)=O)NC(=O)[C@H](CC(C)C)NC(=O)[C@H](C)NC(=O)[C@H](C)NC(=O)CNC(=O)[C@H](CCC(=O)O)NC(=O)[C@H](CC(C)C)NC(=O)[C@H](CC(C)C)NC(=O)[C@H](Cc1ccc(O)cc1)NC(=O)[C@H](CO)NC(=O)[C@@H]1CCCN1C(=O)[C@H](CC(=O)O)NC(=O)[C@H](CO)NC(=O)[C@@H](NC(=O)[C@H](Cc1ccccc1)NC(=O)[C@@H](NC(=O)CNC(=O)[C@H](CCC(=O)O)NC(=O)C(C)(C)NC(=O)[C@@H](N)Cc1c[nH]cn1)[C@@H](C)O)[C@@H](C)O)C(=O)N[C@@H](CCC(N)=O)C(=O)N[C@@H](Cc1c[nH]c2ccccc12)C(=O)N[C@@H](CC(C)C)C(=O)N[C@H](C(N)=O)C(C)C
B6: SEQ ID NO: 123 (peptide)
peptide: H[Aib]EGTFTSDPSGLLEGAALQRFIQWLV-NH2
modifications: N-terminus assumed
SMILES: CC[C@H](C)[C@H](NC(=O)[C@H](Cc1ccccc1)NC(=O)[C@H](CCCNC(=N)N)NC(=O)[C@H](CCC(N)=O)NC(=O)[C@H](CC(C)C)NC(=O)[C@H](C)NC(=O)[C@H](C)NC(=O)CNC(=O)[C@H](CCC(=O)O)NC(=O)[C@H](CC(C)C)NC(=O)[C@H](CC(C)C)NC(=O)CNC(=O)[C@H](CO)NC(=O)[C@@H]1CCCN1C(=O)[C@H](CC(=O)O)NC(=O)[C@H](CO)NC(=O)[C@@H](NC(=O)[C@H](Cc1ccccc1)NC(=O)[C@@H](NC(=O)CNC(=O)[C@H](CCC(=O)O)NC(=O)C(C)(C)NC(=O)[C@@H](N)Cc1c[nH]cn1)[C@@H](C)O)[C@@H](C)O)C(=O)N[C@@H](CCC(N)=O)C(=O)N[C@@H](Cc1c[nH]c2ccccc12)C(=O)N[C@@H](CC(C)C)C(=O)N[C@H](C(N)=O)C(C)C
B7: SEQ ID NO: 125 (peptide)
peptide: H[Aib]EGTFTSDPS[Aib]LLEGAALQRFIQWLV-NH2
modifications: N-terminus assumed
SMILES: CC[C@H](C)[C@H](NC(=O)[C@H](Cc1ccccc1)NC(=O)[C@H](CCCNC(=N)N)NC(=O)[C@H](CCC(N)=O)NC(=O)[C@H](CC(C)C)NC(=O)[C@H](C)NC(=O)[C@H](C)NC(=O)CNC(=O)[C@H](CCC(=O)O)NC(=O)[C@H](CC(C)C)NC(=O)[C@H](CC(C)C)NC(=O)C(C)(C)NC(=O)[C@H](CO)NC(=O)[C@@H]1CCCN1C(=O)[C@H](CC(=O)O)NC(=O)[C@H](CO)NC(=O)[C@@H](NC(=O)[C@H](Cc1ccccc1)NC(=O)[C@@H](NC(=O)CNC(=O)[C@H](CCC(=O)O)NC(=O)C(C)(C)NC(=O)[C@@H](N)Cc1c[nH]cn1)[C@@H](C)O)[C@@H](C)O)C(=O)N[C@@H](CCC(N)=O)C(=O)N[C@@H](Cc1c[nH]c2ccccc12)C(=O)N[C@@H](CC(C)C)C(=O)N[C@H](C(N)=O)C(C)C
B8: SEQ ID NO: 124 (peptide)
peptide: H[Aib]EGTFTSDPSRLLEGAALQRFIQWLV-NH2
modifications: N-terminus assumed
SMILES: CC[C@H](C)[C@H](NC(=O)[C@H](Cc1ccccc1)NC(=O)[C@H](CCCNC(=N)N)NC(=O)[C@H](CCC(N)=O)NC(=O)[C@H](CC(C)C)NC(=O)[C@H](C)NC(=O)[C@H](C)NC(=O)CNC(=O)[C@H](CCC(=O)O)NC(=O)[C@H](CC(C)C)NC(=O)[C@H](CC(C)C)NC(=O)[C@H](CCCNC(=N)N)NC(=O)[C@H](CO)NC(=O)[C@@H]1CCCN1C(=O)[C@H](CC(=O)O)NC(=O)[C@H](CO)NC(=O)[C@@H](NC(=O)[C@H](Cc1ccccc1)NC(=O)[C@@H](NC(=O)CNC(=O)[C@H](CCC(=O)O)NC(=O)C(C)(C)NC(=O)[C@@H](N)Cc1c[nH]cn1)[C@@H](C)O)[C@@H](C)O)C(=O)N[C@@H](CCC(N)=O)C(=O)N[C@@H](Cc1c[nH]c2ccccc12)C(=O)N[C@@H](CC(C)C)C(=O)N[C@H](C(N)=O)C(C)C

These binders were tested against human GLP-1 receptor (hGLP1R) (human, UniProt P43220 24-463) (assay: cell-based or functional assay).

Row | Binder | pEC50 hGLPR1
1 | H[Aib]EGTFTSDVSYLWEEA[Aib]LQRFLEKLV-NH2 (not fully specified (residue 25)) [SEQ ID NO: 130] | 10.5 -log M
2 | B1 | 10.7 -log M
3 | H[Aib]EGTFTSDVSYLKEEALLQRFLEHLV-NH2 (not fully specified (residue 14)) [SEQ ID NO: 132] | 10.7 -log M
4 | B2 | 8.1 -log M
5 | H[Aib]EGTFTSDVSYLKEEA[Aib]LQRFLEFLV-NH2 (not fully specified (residue 14)) [SEQ ID NO: 133] | 10.8 -log M
6 | H[Aib]EGTFTSDVSYLKEEA[Aib]NQRFLEHLV-NH2 (not fully specified (residue 14)) [SEQ ID NO: 131] | 11.3 -log M
7 | B3 | 8.1 -log M
8 | H[Aib]EGTFTSDVSFLKE[Aib]AATQRFLEHLV-NH2 (not fully specified (residue 14)) [SEQ ID NO: 13] | 10.5 -log M
9 | H[Aib]EGTFTSDVSYLKEEA[Aib]LQRWLEHLV-NH2 (not fully specified (residue 14)) [SEQ ID NO: 135] | 11.3 -log M
10 | B4 | 8.1 -log M
11 | B5 | 7.8 -log M
12 | B6 | 8 -log M
13 | B7 | 8.4 -log M
14 | B8 | 8.6 -log M
15 | H[Aib]EGTFTSDVSYLKEEA[Aib]SQRFLEHLV-NH2 (not fully specified (residue 14)) [SEQ ID NO: 134] | 11.1 -log M
16 | H[Aib]EGTFTSDVSNLKEEA[Aib]LQRFLEHLV-NH2 (not fully specified (residue 14)) [SEQ ID NO: 136] | 10.9 -log M
17 | H[Aib]EGTFTSDVSYLKEEAALQRFLEHLV-NH2 (not fully specified (residue 14)) [SEQ ID NO: 137] | 11.1 -log M

Each binder was assayed against human secretin receptor (hSCTR) (human, UniProt P47872 23-440) (assay: cell-based or functional assay).
Sequence of human secretin receptor (hSCTR) (P47872 23-440): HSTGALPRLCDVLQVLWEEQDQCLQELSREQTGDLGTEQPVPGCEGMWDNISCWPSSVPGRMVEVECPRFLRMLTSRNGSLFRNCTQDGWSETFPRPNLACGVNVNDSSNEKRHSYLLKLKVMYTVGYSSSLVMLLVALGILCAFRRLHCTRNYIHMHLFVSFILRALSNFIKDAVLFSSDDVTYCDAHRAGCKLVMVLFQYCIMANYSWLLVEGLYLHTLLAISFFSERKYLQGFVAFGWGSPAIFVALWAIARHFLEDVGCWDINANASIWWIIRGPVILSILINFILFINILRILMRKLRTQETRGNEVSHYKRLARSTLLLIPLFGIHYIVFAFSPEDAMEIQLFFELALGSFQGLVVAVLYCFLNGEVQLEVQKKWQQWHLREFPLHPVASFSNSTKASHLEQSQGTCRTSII

Row | Binder | pEC50 hSCTR
18 | H[Aib]EGTFTSDVSYLWEEA[Aib]LQRFLEKLV-NH2 (not fully specified (residue 25)) [SEQ ID NO: 130] | 6 -log M
19 | B1 | 6.7 -log M
20 | H[Aib]EGTFTSDVSYLKEEALLQRFLEHLV-NH2 (not fully specified (residue 14)) [SEQ ID NO: 132] | 6.7 -log M
21 | B2 | 5 -log M
22 | H[Aib]EGTFTSDVSYLKEEA[Aib]LQRFLEFLV-NH2 (not fully specified (residue 14)) [SEQ ID NO: 133] | 6.4 -log M
23 | H[Aib]EGTFTSDVSYLKEEA[Aib]NQRFLEHLV-NH2 (not fully specified (residue 14)) [SEQ ID NO: 131] | 5.3 -log M
24 | B3 | 5.7 -log M
25 | H[Aib]EGTFTSDVSFLKE[Aib]AATQRFLEHLV-NH2 (not fully specified (residue 14)) [SEQ ID NO: 13] | 6.5 -log M
26 | H[Aib]EGTFTSDVSYLKEEA[Aib]LQRWLEHLV-NH2 (not fully specified (residue 14)) [SEQ ID NO: 135] | 6.9 -log M
27 | B4 | 5.4 -log M
28 | B5 | 4.7 -log M
29 | B6 | 5.2 -log M
30 | B7 | 5 -log M
31 | B8 | 5.3 -log M
32 | H[Aib]EGTFTSDVSYLKEEA[Aib]SQRFLEHLV-NH2 (not fully specified (residue 14)) [SEQ ID NO: 134] | 5.6 -log M
33 | H[Aib]EGTFTSDVSNLKEEA[Aib]LQRFLEHLV-NH2 (not fully specified (residue 14)) [SEQ ID NO: 136] | 7.9 -log M
34 | H[Aib]EGTFTSDVSYLKEEAALQRFLEHLV-NH2 (not fully specified (residue 14)) [SEQ ID NO: 137] | 7.1 -log M

— US20260201008A1, “SECRETIN-DERIVED GLP1R SELECTIVE AGONISTS” (GUBRA A/S, priority 2023, published 2026)
